{"source": "paper PMC4612324", "target": "Aβ 1-40 peptide (UniProt P05067)", "experiment": "ELISA; Aβ1-40 peptide coated on Maxisorp plates (0.1 µg/ml, bicarbonate buffer pH 9.6); antibodies serially diluted in PBS/1 % BSA, 1 h at room temperature; detected with biotinylated anti-mouse IgG and streptavidin poly-HRP; relative affinity", "data": [{"substance": "chGantenerumab (mouse/human chimeric version of Gantenerumab with mouse IgG2a constant region) (antibody)", "values": [{"measurement": "EC50", "value": 0.34, "unit": "pM"}]}]}
